Measured values reported in US20080063651A1 (published 2008).

Target: T1, Recombinant human TNF-α (human, UniProt P01375 77-233)
T1 construct: also called tumor necrosis factor-α; biotinylated TNF-α
Assay: 35S-labelled free protein with biotinylated TNF-α, biotin capture membrane, phosphorimaging

T1 sequence (P01375 77-233 limits assumed): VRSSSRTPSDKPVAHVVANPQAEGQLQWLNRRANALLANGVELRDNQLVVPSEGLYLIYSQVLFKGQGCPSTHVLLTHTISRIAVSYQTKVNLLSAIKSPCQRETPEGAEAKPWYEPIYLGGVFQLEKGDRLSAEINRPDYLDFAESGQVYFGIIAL

Kd	Binder
0.004 µM	clone T09.12 (designed binder) VSDVPRDLEVVAATPTSLLISWRPTSNPPRYYRITYGETGGNSPVQEFTVPPWASTATISGLKPGVDYTITVYAVTAQTGHHLHDKPISINYRT
20 µM	clone M12.04 (designed binder) VSDVPGDLEVVAATPTSLLIGWSMTPNWPRYYRIAYGETGGDSPVQEFTVPPWASIAIIGGLKPGVDYTITVYAVTHRDTPISINYRT
